Some targets named below: NSP8 M94A (SARS-CoV-2); NSP8 M90A (SARS-CoV-2); NSP8 F92A (SARS-CoV-2).
Assay in all cases: cross-linking

On to NSP8 M94A (natural protein), for which, in the assay with NSP8 M94A (SARS-CoV-2), the stoichiometry N (in general, a count of units in the complex or per binding partner) worked out at 2.
NSP8 M90A (natural protein) registered a stoichiometry N with NSP8 M90A (SARS-CoV-2) of 2.
NSP8 F92A (natural protein): in the assay with NSP8 F92A (SARS-CoV-2), the stoichiometry N came to 2.

These data come from publication PMC8191759.
